This data set deals with the molecule itself. As to the kind of experiment: SEC; AtTai4 alone in solution; conditions not told (purification used a HiLoad Superdex 75 column).

As a reminder, the stoichiometry N is a count of units in the complex or per binding partner.

B1: T6SS amidase immunity protein 4 (Tai4) from Agrobacterium tumefaciens, residues 26–129, expressed alone from pCold-GST (natural protein, UniProt A9CGG9 26-129, looked up)
chain: AERTWIFSGAELKQAIEGKLAPDVSDPEMRRLVSVAKSSAYIAGVADLTSGSDWCGAGAVAPHELTDRIYTYLGDMPAEKLDEQAATLVREALKVSFPCEQKSN
notes: codon-optimized synthetic gene; His6-GST tag removed with Turbo3C protease; Disulfide bond between Cys80 and Cys124 in each protomer; also called AtTai4; ATU4346; source: E. coli Rosetta 2 (DE3), purified (Ni-NTA, Resource Q, HiLoad Superdex 75); not shown: His6, N-terminal, cleaved; GST, N-terminal, cleaved
Consider B1, for which the “stoichiometry N” value came out at 2.

These data come from article PMC6277958, “Crystal structure of the Agrobacterium tumefaciens type VI effector–immunity complex” (Acta Crystallographica. Section F, Structural Biology …, 2018).
